B1: Tryptophan synthase α subunit (TrpA) from Francisella tularensis (enzyme)
chain: SNAMTNRYTTLFANLEKRNEGAFIPFVTIGDPNKALSFEIIDTLVSSGADALELGIPFSDPLADGPTIQEANIRALESGITPKDCFDILTKIRAKYPHIPIGLLLYANLVYANGIENFYQKCLDAGVDSILIADVPAHESKEFRDIAKKVGIAQIFIAPPDASESTLKQISELGSGYTYLLSRVGVTGTETAANMPVEDVLTKLREYNAPKPVLGFGISKPEQVQQAIKAGAAGAISGSATVKIIQNNISNKQKMLNELTYFVKEMKAATLN
notes: also called FtTrpA; α subunit of FtTrpAB
B2: Tryptophan synthase β subunit (TrpB) from Francisella tularensis (enzyme)
chain: MSKLNAYFGEYGGQFVPQILVPALDQLEQEFIKAQADESFKQEFKELLQEYAGRPTALTKTRNIVKNTRTKLYLKREDLLHGGAHKTNQVLGQALLAKRMGKKEIIAETGAGQHGVATALACALLDLKCRVYMGAKDVERQSPNVFRMKLMGAEVIPVHSGSATLKDACNEALRDWSANYSKAHYLLGTAAGPHPFPTIVREFQRMIGEETKQQMLAKEGRLPDAVIACVGGGSNAIGMFADFIDEKNVKLIGVEPAGKGIETGEHGAPLKHGKTGIFFGMKAPLMQNSDGQIEESYSISAGLDFPSVGPQHAHLLAIGRAKYASATDDEALDAFKLLCKKEGIIPALESSHALAHALKLAYEDPNKEQLLVVNLSGRGDKDIFTVHDILKEKGEI
notes: also called FtTrpB; β subunit of FtTrpAB

Tests used:
[1] = target: B2; experiment: crystal structure; conditions: both partners purified
crystal structure = target: the molecule itself; experiment: crystal structure

| Binder | binding result [1] | binding result (crystal structure) |
| --- | --- | --- |
| B1 | binds |  |
| B2 |  | binds |
